Experiment [1] concerns the target recombinant protein containing hST2 extracellular domain with human antibody heavy chain Fc tag (hST2-ECD-hFc) (human). Description: competition ELISA, coated hST2-ECD-hFc, antibody then biotin-labeled hIL33 Avitag (competitor). How it is done: Whether the anti-ST2 antibodies were able to block the binding of hIL33 to hST2 was determined based on ELISA. A high-adsorption 96-well plate was coated with 2 µg/mL hST2-ECD-hFc at 100 µL/well and incubated overnight at 4° C. After the antigen not adsorbed was well washed off, the non-specific binding sites were blocked with a blocking buffer (PBST containing 1% bovine serum albumin). After the plate was washed three times with a washing buffer (PBST, PBS containing 0.05% (v/v) Tween 20), the anti-ST2 antibodies (serially diluted 2-fold from an initial concentration of 66.67 nM to 8 concentrations) were added at 100 µL/well, and the plate was incubated at 37° C. for 1 h After the plate was washed 3 times with the washing buffer, 100 µL of biotin-labeled hIL33 Avitag (with a concentration of 0.1 µg/mL) was added to each well, and the plate was incubated at 37° C. for 1 h. After the plate was washed 3 times with the washing buffer, a 1:1000 diluted secondary antibody Avidin HRP (Jackson immunoresearch, 016-030-084) was added at 100 µL/well, and the plate was incubated at room temperature for 1 h After the plate was washed with the washing buffer, the substrate TMB solution (Thermo, 00-4201-56) was added at 100 µL/well, and the plate was incubated at room temperature for 3 min. 50 µL of a stop solution (2 N H₂SO₄) was added to terminate the reactions. Colorimetric signals were generated and read at 450 nm using a plate reader (PE, Envision). The data were analyzed using GraphPad Prism5, and the IC₅₀ values were calculated.
For orientation: In an ELISA, binding on a coated surface is turned into a signal by an enzyme label.

Experiment [2] addresses T1, cynomolgus monkey ST2 antigen (Cyno-ST2-his, Sino biological, 90915-C08H) (cynomolgus monkey, UniProt Q01638 19-328 (human entry)).
T1 construct: Bought protein; not shown: his tag
T1 chain: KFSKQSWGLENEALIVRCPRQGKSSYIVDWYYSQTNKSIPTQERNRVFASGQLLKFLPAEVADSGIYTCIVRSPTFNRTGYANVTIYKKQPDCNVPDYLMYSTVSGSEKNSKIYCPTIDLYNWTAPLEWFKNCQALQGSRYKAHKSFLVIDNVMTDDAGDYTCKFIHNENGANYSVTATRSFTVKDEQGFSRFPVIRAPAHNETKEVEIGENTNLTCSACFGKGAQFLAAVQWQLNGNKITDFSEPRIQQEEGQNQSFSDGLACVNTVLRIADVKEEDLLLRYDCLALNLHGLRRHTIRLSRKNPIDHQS
Kind of experiment: SPR (Biacore T200), Cyno-ST2-his captured by anti-his antibody on CM5, antibody as analyte, 1:1 model. Here is the method:
The reaction signals were detected in real time using a Biacore instrument (Cytiva, BiacoreT200), and then an association-dissociation curve was obtained. After the completion of dissociation in each cycle, the biochip was regenerated with a regeneration solution for the next capture; the procedure was repeated until the affinity of the different antibodies for ST2 was determined. The acquired data were finally analyzed using the GE BIAevaluation software with a 1:1 (Langmuir) binding model to determine the association rate constants ka (kon) and the dissociation rate constants kd (koff), and the dissociation constants KD were given by KD = kd/ka. The determined affinity of the anti-ST2 antibody for human ST2 antigen (hST2-ECD-mFc), cynomolgus monkey ST2 antigen (Cyno-ST2-his, Sino biological, 90915-C08H) and the determined affinity of the anti-ST2 chimeric antibodies for ST2 were shown in Table 5.
For orientation: Surface plasmon resonance follows binding to a sensor surface in real time, without labels.

Experiment [3] concerns the target T2, human ST2 (hST2, Interleukin-1 receptor-like 1 isoform A) on cells (human, UniProt Q01638 19-556).
T2 construct: the same id is used for hST2 naturally expressed on KU812 cells and on human CD4+ T cells; also called HEK293T-hST2-NFκB-Luciferase; KU812-NFκB-Luciferase
T2 sequence: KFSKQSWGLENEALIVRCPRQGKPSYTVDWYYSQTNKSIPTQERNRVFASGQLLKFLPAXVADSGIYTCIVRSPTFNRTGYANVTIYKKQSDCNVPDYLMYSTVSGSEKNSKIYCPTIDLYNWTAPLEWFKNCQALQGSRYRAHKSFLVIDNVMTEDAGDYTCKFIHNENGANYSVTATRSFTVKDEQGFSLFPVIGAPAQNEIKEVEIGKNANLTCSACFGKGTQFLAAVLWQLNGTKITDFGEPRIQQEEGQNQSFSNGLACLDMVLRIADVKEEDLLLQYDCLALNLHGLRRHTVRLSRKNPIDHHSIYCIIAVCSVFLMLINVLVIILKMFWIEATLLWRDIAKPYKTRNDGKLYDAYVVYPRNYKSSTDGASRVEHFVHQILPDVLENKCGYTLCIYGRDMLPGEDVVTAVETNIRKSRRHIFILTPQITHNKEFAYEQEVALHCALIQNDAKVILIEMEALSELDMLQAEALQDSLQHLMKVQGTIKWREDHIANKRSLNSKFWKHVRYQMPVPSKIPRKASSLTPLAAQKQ
Kind of experiment: flow cytometry on HEK293T-hST2-NFκB-Luciferase cells. How it is done: The binding capacity of the anti-ST2 antibodies to hST2-overexpressing cell lines and cyno-ST2-overexpressing cell lines was analyzed using an FACS-based method through binding assays with the hST2 (SEQ ID NO:1)-overexpressing HEK293T cell line (HEK293T-hST2-NFκB-Luciferase) and the cynomolgus monkey ST2 (SEQ ID NO: 10)-overexpressing HEK293T cell line (HEK293T-Cyno-ST2-NFKB-Luciferase). HEK293 cells were transfected with the pLenti6.3- hST2 plasmid and the pLenti6.3-NFκB-luciferasae plasmid using a lentiviral transfection system to construct the cell line HEK293T-hST2-NFκB-Luciferase. HEK293T cells were transfected with the pLenti6.3-cynoST2 plasmid and the pLenti6.3-NFκB-luciferasae plasmid to construct the cell line HEK293T-Cyno-ST2-NFκB-Luciferase.
3 × 10⁵ HEK293T-hST2-NFκB-Luciferase or HEK293T-Cyno-ST2-NFκB-Luciferase cells were added to a 96-well culture plate. Serially diluted anti-ST2 antibodies (serially diluted 4-fold from an initial concentration of 667 nM to 8 concentrations in binding assays with the HEK293T-hST2-NFκB-Luciferase cells; serially diluted 4-fold from an initial concentration of 400 nM to 8 concentrations in binding assays with the HEK293T-Cyno-ST2-NFκB-Luciferase cells) were added to the cell suspensions. After the plate was incubated at room temperature for 60 min, the cells were washed 3 times with PBS. […] The cells were washed 3 times with PBS and resuspended in 100 µ1L of PBS, and then the fluorescence signals were analyzed and detected using a flow cytometer (BD, Accuri C6). The binding capacity of the anti-ST2 antibodies to hST2 and cyno-ST2 on the cell line surfaces was measured in terms of the mean fluorescence intensity (MFI) of staining. The data were analyzed using GraphPad Prism5, and the EC₅₀ values were calculated. The EC₅₀ values for the binding of the anti-ST2 chimeric antibodies to hST2 and Cyno-ST2 at the cellular level are shown in Table 8 and FIGS. 7-8.

B1: Chimeric 31C8 (antibody, human IgG2, kappa, V domains shown)
VH: QVQLQQSGPELVRPGASVTLSCKASGYIFIDSEMHWVKQTPVHGLEWIGAIDPETGDTVYNQKFKGKATLTADKSSSTASMELSSLTSEDSAVYYCTGSTTDYYFAYWGQGTTLTVSS
VL: DIVMTQAAFSNPVTLGTSASISCRSSKSLLHSNGIIYLYWYLQKPGQSPQLLIYQMSNLASGVPDRFSSSGSGTDFTLRISRVEAEDVGVYYCAQNLELPFTFGSGTKLEIKR
notes: also called xi31C8
For B1, in experiment [1], the IC50 came to 2.5 nM. This molecule also registered a Kd in experiment [2] of 0.323 nM. For the same molecule, the EC50 in experiment [3] was determined as 0.298 nM.

B2: Chimeric 3C6 (antibody, human IgG2, kappa, V domains shown)
VH: QVQLQQSGAEVVRPGASVTLSCKASDYTITDYEMHWVKQTPVHGLEWIGAIDPETGDTAYSQNFKGKATLTADESSSTAYMELSSLTSEDSAVYYCSRSATDYYFASWGQGTTLTVSS
VL: DIVMTQAAISNPVTLGTSASMSCRSSKSLLHSNGITYLYWYLQKPGHSPQLLIYQMSNLASGVPDRFSSSGSGTDFTLKISRVEAEDVGVYYCAQNLELPFTFGSGTKLEIKR
notes: also called xi3C6
For B2, the IC50 in experiment [1] is 2.52 nM. Binding in experiment [2] was put at a Kd of 152 nM. In experiment [3], a half-maximal response (EC50) required 0.349 nM.

B3: Chimeric 26A1 (antibody, human IgG2, kappa, V domains shown)
VH: QVQLQQSGAELVRPGASVTLSCKASDYIFTDSEIHWVKQTLVHGLEWIGAIDPETGDTAYNQKFKGKATLTADKSSSTAYMELSSLTSEGSAVYYCSGSTTDCYFAYWGQGTTLTVSS
VL: DIVMTQAAFSNPVTLGTSASISCRSSKSLLHSNGIIYLYWYLQKPGQSPQLLIYQMSNLASGVPDRFSSSGSGTDFTLRISRVEAEDVGVYYCAQNLELPFTFGSGTKLEIKR
notes: also called xi26A1
B3: the IC50 in experiment [1] was determined as 2.53 nM. This molecule came in with a Kd in experiment [2] of 69.8 nM.

B4: Chimeric 8F4 (antibody, human IgG2, kappa, V domains shown)
VH: QVQLQQSGAELVRPGASVTLSCKASGHIFTDYEMQWVKQTPVHGLEWIGAFDPETGDTAYNQKFKGKATLTADKSSSTAYMELSSLTSEDSAVYYCSGSTTDYYFAYWGQGTSLTVSS
VL: DVVMTQTAFSNPVTLGTSASISCRSSKSLLHSNGIIYLYWYLQKPGQSPQLLIYQMSNLASGVPDRFSSSGSGTDFTLRISRVEAEDVGVYYCAQNLELPFTFGSGTKLEIKR
notes: also called xi8F4
On to B4, for which, in experiment [1], the IC50 came to 2.79 nM. Moreover, binding in experiment [2] was put at a Kd of 4.04 nM. Moreover, a half-maximal response in experiment [3] (EC50) required 0.343 nM.

B5: Chimeric 17E2 (antibody, human IgG2, kappa, V domains shown)
VH: QVQLQQSGAELVRPGASVTLSCKASGYTFTDYEMHWVKQTPVLGLEWIGAIDPETGDTAYNQKFKGKATLTADKSSSTAYMELSSLASEDSAVYYCIRVDSNYDYFDYWGQDTTLTVSS
VL: DIVLTQSPPILSASPGEKVTMTCRASSSVSYMHWYQQKPGSSPKPWIYDTSNLASGVPARFSGSGSGTSYSLTISRVEAEDAATYYCQQWSSNPLTFGAGTKLELKR
notes: also called xi17E2
As for B5, in experiment [1], the IC50 turned out to be 3.35 nM. This molecule had a Kd in experiment [2] of 0.0257 nM. In experiment [3], a half-maximal response (EC50) required 0.224 nM.

B6: Chimeric 7D1 (antibody, human IgG2, kappa, V domains shown)
VH: QVQLQQSGAELVRPGASVTLSCKASGYTFTDYEMHWVKQTPVHGLDWIGTIDPETGDTAYNQKFKGRATLTADKSSSTAYMELSSLTSEDSAVYYCTRYSYTNSPYGMDYWGQGTSVTVSS
VL: DVVMTQTPKFLLVSAGDRVTITCKASQSVSNDVAWYQQKPGQSPKLLIYYASNRYTGVPDRFTGSGYGTDFTFTINTVQAEDLAVYFCQQDYSSPYTFGGGTKLEIKR
notes: also called xi7D1
In the case of B6, the IC50 in experiment [1] amounted to 2.9 nM. For the same molecule, in experiment [2], the Kd worked out at 0.124 nM. Moreover, the midpoint of the response in experiment [3], the EC50, lay at 0.265 nM.

B7: RG6149 (antibody Ab2 in CN104334582, prepared in-house) (antibody, human IgG2, kappa, V domains shown)
VH: EVQLVQSGAEVKKPGESLKISCKGSGYSFTNYWIGWVRQMPGKGLEWMGIIYPGNSDTRFSPSFQGQVTISADKSITTAYLQWSSLKASDTAMYYCARHGTSSDYYGLDVWGQGTTVTVSS
VL: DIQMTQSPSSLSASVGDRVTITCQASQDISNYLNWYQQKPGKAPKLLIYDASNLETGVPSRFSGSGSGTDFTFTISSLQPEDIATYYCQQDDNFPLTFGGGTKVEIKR
notes: Control anti-ST2 antibody
For the molecule B7, the IC50 in experiment [1] was determined as 2.88 nM. In addition, the Kd in experiment [2] was 0.049 nM. The response in experiment [3] was half-maximal at 0.589 nM (EC50).

In general, IC50 refers to the midpoint of a concentration-inhibition curve. By Kd is commonly meant the free concentration of one partner at which half of the binding sites on the other are occupied at equilibrium, for simple one-to-one binding. For orientation: EC50 means the concentration giving half of the maximal effect.

The record behind these values is patent US20230272086A1 (CHIA TAI TIANQING PHARMACEUTICAL GROUP, published 2023).
